Values of other authors as cited in article PMC5695669 (Journal of medicinal chemistry, 2012).

Columns and labels:
rMor (μ opioid receptor) = rMor (μ opioid receptor) (Rattus norvegicus, UniProt P33535); details: [3H]DAMGO, ±SEM, ref [3]
[1] = system: guinea pig ileum longitudinal muscle-myenteric plexus; details: read-out: GPI (IC50); functional bioactivity, ±SEM; ref [3]

rMor (μ opioid receptor), sequence (P33535 whole entry): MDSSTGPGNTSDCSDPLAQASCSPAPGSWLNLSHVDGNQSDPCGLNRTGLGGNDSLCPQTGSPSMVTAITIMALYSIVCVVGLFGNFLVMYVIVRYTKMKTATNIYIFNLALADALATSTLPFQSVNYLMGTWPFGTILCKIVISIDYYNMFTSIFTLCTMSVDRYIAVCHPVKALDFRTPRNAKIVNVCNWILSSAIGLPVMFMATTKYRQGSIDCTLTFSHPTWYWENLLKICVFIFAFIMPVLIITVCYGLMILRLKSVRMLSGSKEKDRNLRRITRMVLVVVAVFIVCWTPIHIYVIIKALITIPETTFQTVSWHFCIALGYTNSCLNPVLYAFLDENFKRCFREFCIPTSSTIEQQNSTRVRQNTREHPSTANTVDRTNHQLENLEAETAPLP

In the case of “H-Tyr-Pro-Phe-Phe-NH2 (H-YPFF-NH2) [EM-2]”, the Ki (rMor (μ opioid receptor)) is listed as 9.6 ± 0.98 nM and the IC50 [1] is listed as 15 ± 2 nM.
